Experiment [1] has as its target SEL1L S658P (mouse knock-in) (mouse (endogenous in MEFs and P0 liver)) (UniProt Q9Z2G6). The experiment can be described thus: co-IP; IP of endogenous SEL1L from P0 mouse liver lysates (WT, Sel1L^S658P, Sel1L^L709P); same lysis buffer; DERL2 eluted with 0.1 M glycine pH 2.5; immunoblot with quantification. Background: Immunoblotting shows a protein as a band on a membrane.

For experiment [2] the target is unchanged. The experiment can be described thus: co-IP; IP of endogenous SEL1L (1 ug anti-SEL1L, Protein A agarose, overnight 4 C) from MEF lysates (WT, Sel1L^S658P, Sel1L^L709P, Sel1L^P699T, Sel1L^ERCre KO); 150 mM NaCl, 25 mM Tris-HCl pH 7.5, 0.2% NP-40, 0.1% Triton X-100; immunoblot, prey band normalised to bait.
Experiment [3] concerns the target HRD1 (mouse) (mouse (endogenous in MEFs and P0 liver)) (UniProt Q9DBY1). The experiment can be described thus: co-IP; reciprocal IP of endogenous HRD1 (anti-HRD1, Protein A agarose) from MEF lysates; same lysis buffer; immunoblot.

As for “HRD1 (mouse) (from UniProt Q9DBY1 1-612) (enzyme)”, the reduction of HRD1 association against WT in experiment [1] stood at 80%. For the same molecule, the reduction of HRD1 binding against WT in experiment [2] came out at 60%.

Take “SEL1L S658P (mouse knock-in) (from UniProt Q9Z2G6 22-790) (natural protein)”: the reduction of SEL1L–HRD1 binding against WT in experiment [3] stood at 60%.

B1: DERL2 (mouse) (natural protein)
chain: MAYQSLRLEYLQIPPVSRAYTTACVLTTAAVQLELITPFQLYFNPELIFKHFQIWRLITNFLFFGPVGFNFLFNMIFLYRYCRMLEEGSFRGRTADFVFMFLFGGFLMTLFGLFVSLVFLGQAFTIMLVYVWSRRNPYVRMNFFGLLNFQAPFLPWVLMGFSLLLGNSIIVDLLGIAVGHIYFFLEDIFPNQPGGIRILKTPSILRTIFDTPDEDPNYNPLPEERPGGFAWGEGQRLGG
Molecule B1 displayed a decrease of DERL2 interaction against WT in experiment [1] of 60%.

The values above are taken from article PMC12891039.
